No end group written: not given here.

For test [1], the target named is T1, Non-sense coating peptide VPKDLPPDTT-biotin.
T1 construct: Held on streptavidin-coated plates; also called non-sense biotinylated coating peptide
T1 peptide: VPKDLPPDTT-biotin
Briefly: ELISA, peptide coated on a streptavidin plate. On the procedure:
The target sequence was used as the standard peptide ([…]; SEQ ID NO: 1). A biotinylated peptide ([…]-K-biotin; SEQ ID NO:7) was included as a coating peptide with addition of a lysine residue to the C-terminal end to ensure biotin linking. The specificity of the antibody was tested by including an elongated standard peptide with an additional amino acid added to the N-terminal of the target peptide sequence ([…]; SEQ ID NO: 2), a truncated standard peptide with a removal of the first N-terminal amino acid ([…]; SEQ ID NO: 3) as well as a non-sense standard peptide ([…]; SEQ ID NO: 4) and a non-sense biotinylated coating peptide ([…]-biotin; SEQ ID NO: 5) in the assay validation. Four peptides (Von Willebrand factor, glucagon, SPARC-like protein 1 and ADAMTS15) with one amino acid mismatch compared to the first six amino acids in the target sequence were also included to further test the antibody specificity. The immunogenic peptide ([…]-GGC-KLH; SEQ ID NO: 6) was generated by covalently cross-linking the standard peptide to Keyhole Limpet Hemocyanin (KLH) carrier protein using Succinimidyl 4-(N-maleimidomethyl)cyclohexane-1-carboxylate, SMCC (Thermo Scientific, Waltham, MA, USA, cat.no. 22336). Glycine and cysteine residues were added at the C-terminal end to ensure right linking of the carrier protein. […]
Background: ELISA stands for enzyme-linked immunosorbent assay.

The target of test [2] is T2, Standard peptide LLARDFEKNY (human).
T2 construct: Synthetic peptide from Genscript with a free N-terminus; also called calibration peptide
T2 peptide: LLARDFEKNY
Briefly: preliminary competitive ELISA, hybridoma supernatant, 10 ng/mL biotinylated coating peptide. On the procedure: The reactivity of the monoclonal antibody was evaluated by displacement using human serum samples and the standard peptide ([…]; SEQ ID NO: 1) in a preliminary ELISA using 10 ng/mL biotinylated coating peptide on streptavidin-coated microtiter plates (Roche, Basel, Switzerland, cat. #11940279) and the supernatant from the antibody producing monoclonal hybridoma cells. The clone with the best reactivity towards the standard peptide was purified using protein-G-columns according to the manufacturer’s instructions (GE Healthcare Life Sciences, Little Chalfont, UK, cat. #17-0404-01 ).

In test [3] the target is T3, Recombinant human SPARC, full-length, uncleaved (human, UniProt P09486 18-303).
T3 construct: Incubated in MMP buffer without protease and then measured in the SPARC-M ELISA; also called recombinant full-length SPARC; osteonectin
T3 sequence (looked up): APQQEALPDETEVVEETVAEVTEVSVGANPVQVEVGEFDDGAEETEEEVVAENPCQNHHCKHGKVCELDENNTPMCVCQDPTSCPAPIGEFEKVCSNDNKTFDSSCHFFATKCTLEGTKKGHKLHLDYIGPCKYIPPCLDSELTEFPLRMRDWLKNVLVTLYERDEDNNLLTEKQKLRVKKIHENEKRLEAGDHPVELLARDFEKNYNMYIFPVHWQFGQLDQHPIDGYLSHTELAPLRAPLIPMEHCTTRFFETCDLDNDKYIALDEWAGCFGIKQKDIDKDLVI
Briefly: competitive SPARC-M ELISA on recombinant SPARC incubated without protease.

In test [4] the target is T4, Von Willebrand factor (VWF) peptide LLARDCQDHS (human).
T4 construct: A peptide was tested, not the whole protein
T4 peptide: LLARDCQDHS
Briefly: competitive SPARC-M ELISA, peptide as competitor. As to the method: (§1) The specificity of the antibody was tested by including an elongated standard peptide with an additional amino acid added to the N-terminal of the target peptide sequence ([…]; SEQ ID NO: 2), a truncated standard peptide with a removal of the first N-terminal amino acid ([…]; SEQ ID NO: 3) as well as a non-sense standard peptide ([…]; SEQ ID NO: 4) and a non-sense biotinylated coating peptide ([…]-biotin; SEQ ID NO: 5) in the assay validation. Four peptides (Von Willebrand factor, glucagon, SPARC-like protein 1 and ADAMTS15) with one amino acid mismatch compared to the first six amino acids in the target sequence were also included to further test the antibody specificity. The immunogenic peptide ([…]-GGC-KLH; SEQ ID NO: 6) was generated by covalently cross-linking the standard peptide to Keyhole Limpet Hemocyanin (KLH) carrier protein using Succinimidyl 4-(N-maleimidomethyl)cyclohexane-1-carboxylate, SMCC (Thermo Scientific, Waltham, MA, USA, cat.no. 22336). Glycine and cysteine residues were added at the C-terminal end to ensure right linking of the carrier protein.
(§2) A 96-well streptavidin-coated microtiter plate was coated with 1.1 ng/mL biotinylated coating peptide dissolved in assay buffer (50 mM Tris-BTB, 4 g/L NaCl, pH 8.0) and incubated for 30 min. at 20° C. in darkness shaking (300 rpm). Twenty µL standard peptide or pre-diluted serum (1:4) were added to appropriate wells, followed by the addition of 100 µL monoclonal antibody dissolved in assay buffer to a concentration of 14 ng/mL to each well and incubated 1 hour at 20° C. in darkness shaking (300 rpm). One hundred µL of goat anti-mouse POD-conjugated IgG antibody (Thermo Scientific, Waltham, MA, USA, cat. #31437) diluted 1:6000 in assay buffer was added to each well and incubated 1 hour at 20° C. in darkness shaking. All incubation steps were followed by five washes in washing buffer (20 mM Tris, 50 mM NaCl, pH 7.2). Finally, 100 µL tetramethylbenzidine (TMB) (cat. 438OH, Kem-En-Tec Diagnostics, Denmark) was added to each well and the plate was incubated for 15 minutes at 20° C. in darkness shaking. The enzymatic reaction was stopped by adding 0.18 M H₂SO₄ and absorbance was measured at 450 nm with 650 nm as reference. A calibration curve was plotted using a 4-parameter logistic curve fit. Data were analyzed using the SoftMax Pro v.6.3 software.

Test [5] has as its target T5, SPARC-like protein 1 (SLP1) peptide LLLRDFKKNY (human).
T5 construct: A peptide was tested, not the whole protein
T5 peptide: LLLRDFKKNY
Briefly: competitive SPARC-M ELISA, peptide as competitor. As to the method:
as §1, §2

In test [6] the target is T6, Glucagon (GCG) peptide LAARDFINWL (human).
T6 construct: A peptide was tested, not the whole protein
T6 peptide: LAARDFINWL
Briefly: competitive SPARC-M ELISA, peptide as competitor. As to the method:
as §1, §2

Test [7] deals with T7, ADAMTS15 (A15) peptide LLARDQCNLH (human).
T7 construct: A peptide was tested, not the whole protein
T7 peptide: LLARDQCNLH
Briefly: competitive SPARC-M ELISA, peptide as competitor. On the procedure: as §1, §2

B1: SPARC-M monoclonal antibody (antibody, mouse IgG1, kappa, V domains shown)
VH: EVKLVESGGGLVKPGGSLKLSCAASGFTFSRNAMSWVRQTPEKRLEWVASISTSDNTYYPDSVKGRFTISKDNARNILYLQMSSLRSEDTAMYYCASGFDVGAYWGQGTLVTVSA
VL: DVLMTQTPLSLPVSLGDQASISCRSSQSIVHSNGNTYLEWYLQKPGQSPKLLIYKVSNRFSGVPDRFSGSGSGTDFTLKISRVDTEDLGVYYCFQGSHVPLTFGAGTKLELKR
notes: also called the antibody; the selected antibody
For B1, the binding result in test [1] is “no binding”; in test [2] it was “binds”; in test [3], “no binding”; in test [4], “no binding”; in test [5], “no binding”; in test [6], “no binding”. The binding result in test [7] is reported as “no binding”.

Source of the values: patent US20230152323A1 (NORDIC BIOSCIENCE A S, published 2023).
